The test system of one assay is Bv8 protein levels. The assay is described as follows: Serum Bv8 in A673 tumor-bearing mice treated with cisplatin. Format: in vivo, mouse. To be noted: cisplatin 5 mg/kg, alone or in combination with anti-VEGF. As to the method:
FIG. 6. […] Anti-Bv8 treatment is mostly effective when treatment is initiated early in tumor development. […] Mice were then treated with control, anti-Bv8, anti-VEGF or combination (anti-VEGF plus anti-Bv8) of antibodies. Tumor volume was measured as described. * indicates significant difference (p<0.05) in tumor volume between combination therapy vs. anti-VEGF monotherapy. c&d. […] Nude mice (c) and C57B1/6 (d) mice were implanted with EL4 cells and underwent treatment with control, anti-Bv8, anti-VEGF or the combination. Tumor volume and terminal tumor weight were measured as described. * indicates significant difference […] in tumor volume in control vs. each monotherapy or the combination therapy. Differences in tumor volume are also significant when comparing combination vs. each monotherapy. e. Cisplatin and anti-VEGF treatment increase Bv8 concentration in the serum. Beige nude mice were implanted with A673 cells and were treated with PBS, cisplatin (5 mg/kg) plus control antibody, cisplatin plus anti-Bv8, or cisplatin plus anti-VEGF or the combination cisplatin, anti-Bv8 and anti-VEGF. Serum Bv8 protein concentrations were measured by ELISA. f. Chemotherapy plus anti-VEGF and anti-Bv8 can effectively suppress tumor growth in established A673 tumors. […]

The target in another assay is T1, PKR1/EG-VEGFR1 (Homo sapiens, UniProt Q8TCW9).
T1 construct: host or cells: GeneBLAzer NFAT-CHO cells
Description: Bv8 bioactivity assay, GeneBLAzer NFAT-CHO cells transfected with PKR1/EG-VEGFR1. It is filed as cell-based. To be noted: Bv8 0.2-200 ng/ml; VEGF-A up to 200 ng/ml. As to the method:
The GeneBLAzer® NFAT-CHO cells were obtained from Invitrogen Corporation (Carlsbad, Calif.). Cells were stably transfected with PKR1/EG-VEGFR1 and grown in DMEM (high glucose) containing 10% dialysed serum, 0.1 mM NEAA, 2 mM GlutaMax™ (Gibco), 1 mM sodium pyruvate, 10 μg/ml Zeocin, 500 μg/ml hygromycin. Cells were plated into 96-well Viewplate (Packard) with 2.5×10^4 in […] in 1% DMEM overnight at 5% CO2, 37° C. On the following day, cells were treated with various column fractions that were concentrated with Microcon Centrifugal Filter Devices (Ultracel YM-3) from Millipore. 0.2-0.02 ng/ml hBv8 (Peprotech Inc.) prepared in 1% DMEM was used as a positive control. One hour later, media was removed and replaced with […] Hank's solution containing 0.1% BSA and 6× loading buffer containing 1 mM CCF4 (Invitrogen Corporation). Plates were incubated for 1.5 hr at room temperature in the dark and read on Wallac plate reader at excitation wavelength of 410 nm and emission wavelength of 450/520 nm. Negative controls were cells with no ligand added and control media alone. CHO cells were stimulated with recombinant human Bv8 or pooled fractions for 1 hr before adding the β-lactamase substrate CCF4. To assess the specificity of the column fractions, anti-Bv8 antibodies 2B9 and 3F1 were added at […].

The next assay concerns human neutrophils. The assay is described as follows: Chemotaxis of peripheral blood neutrophils. It is filed as cell-based. The procedure: 10^6 cells were washed with HBSS containing 0.2% BSA before putting into transwell insert with 5 μm pore size (Corning Incorporated, Lowell, Mass.). In the lower chamber, media alone or media with various cytokines at various concentrations (maximum at 200 ng/ml) was added. After 3 hr at 37° C., cells in the lower chamber were transferred, mixed with 9 ml ZPAK solution and counted on Z2 Coulter Particle Count and Size Analyzer (Beckman Coulter, Fullerton, Calif.).

Another assay relates to p44/42 MAPK. Description: MAPK phosphorylation in TAECs (Western blot). Format: cell-based, mouse. The procedure: TIB42-TAEC cells were starved for 6 hr in basal media supplemented with 0.5% BSA. Cells were then stimulated with human recombinant Bv8 (200 ng/ml; PeproTech), Complete Media (CM), VEGF (100 ng/ml; PeproTech) or BSA (0.5%). Cell extracts were collected at the indicated time-points. Western blot analysis of the extracts from TIB42-TAEC cells was performed using PhosphoPlus p44/42 MAPK™ antibody kit (Cell signaling).
A general note: A western blot detects proteins with antibodies after separation by electrophoresis.

Another assay has as its system TIB42-TAEC cells. Description: In vitro tube formation of tumor-associated endothelial cells. Conditions: Bv8 200 ng/ml, VEGF-A 100 ng/ml, 36 hours. Format: cell-based, mouse. The procedure: Tumor associated endothelial cells (TAECs) were isolated using a magnetic beads sorting system (Miltenyi Biotech), essentially as previously described (Hida et al., Cancer Res 64:8249-8255 (2004)). Briefly, TIB42 mouse lymphoma cells were injected into the dorsal lateral flanks of female beige nude mice. When tumors reached a diameter of […], they were excised, minced and then digested with collagenase II (Worthington Biochemical Corporation). Cell suspensions were than filtered using 100 μm to 40 μm meshes. CD31^+ cells were finally sorted using a FITC-CD31 antibody (BD Biosciences) according to the manufacturer's instructions. CD31+ cells were seeded in gelatin coated plates in the presence of EGM-2MV media (Cambrex). After 24 hs in culture CD31+ non-adherent cells were removed by washing several times with PBS.
For in vitro tube formation, TIB42-TAEC cells (passages 6-8) were starved for 5 hs in serum free medium. After this, cells were collected and resuspended in serum free medium supplemented with 5% BSA and treated with VEGF-A (100 ng/ml), Bv8 (200 ng/ml) or no addition (control). For specificity tests, Bv8, was incubated in the presence of anti-Bv8 Mabs (10 μg/ml). 5×10^5 cells were seeded in each well of a 24 well pre-coated with Matrigel™ (BD Biosciences) and tube formation was evaluated after 36 hours.

The subject of assay [1] is A673, HM7, HPAC and Calu6 cells. The assay is described as follows: Tumor cell proliferation assay (BrdU incorporation). Format: cell-based, human. Conditions: range of concentrations. As to the method: A673, HM7, HPAC and Calu6 cells were trypsinized and washed in media containing 0.5% FBS before seeding into 96-well black Viewplate (Packard Bioscience Company, Meriden, Conn.). Cells were incubated with various amounts of Bv8 (PeproTech Inc., Rocky Hill, N.J.) for 3 days. 10% FBS-containing media served as a positive control. Cell proliferation was assessed by BrdU incorporation using the Cell Proliferation ELISA kit (Roche).
A general note: Dividing cells build labelled thymidine or BrdU into new DNA.

Another assay relates to CD11b+Gr1+ myeloid cells. The assay is described as follows: Trans-well migration of BM CD11b+Gr1+ cells. To be noted: comparable to SDF-1. Format: cell-based, mouse. As to the method:
BMMNCs were isolated from naïve Beige nude mice and the CD11b+Gr1+ population was sorted using CD11b microbeads (Miltenyi Biotech, CA) according to protocols provided by the manufacturer. An aliquot of the sorted cells were stained with anti-CD11bAPC and antiGr1-PE to ensure the purity (100%) of CD11b+Gr1+ cells. For migration assay, 2.0×10^5 cells were plated on the top chamber of transwells (Corning Incorporated, NY). The bottom chambers contained 600 μL of media (IMDM (Gibco BRL, CA) supplemented with BIT (Stem Cell Technologies, BC, Canada) containing human Bv8, control antibody, and murine recombinant VEGF in separate wells. Cells were incubated at 37° C. and 5% CO2 for 9 hrs and migration of CD11+b+Gr1+ cells was evaluated by counting the cells in the bottom chamber.

The test system of assay [2] is Lin- and CD11b+Gr1+ BM cells. Description: Bv8 treatment of Lin- and CD11b+Gr1+ BM cells. It is filed as cell-based, mouse. As to the method:
Supplemental FIG. 3. a. Bv8 induces trans-well migration of CD11b+Gr1+ myeloid cells. Controls were PBS or media alone. b&c. Expression of Bv8 receptors in BMMNCs. Beige nude mice were implanted with A673, HM7, HPAC or Calu-06 cells as described. After 10 days, CD11b+Gr1+ myeloid cells were isolated from the BM and Taqman™ analysis was performed to investigate EG-VEGFRs expression in myeloid and non-myeloid (CD11b−Gr1−) subsets of tumor versus Matrigel™-implanted mice. […] Bv8 alters the fate of the progenitor population to myeloid cells (CD11b+Gr1+) and also inhibitors cell death in the Lin-population. The Lin-fraction, isolated from the BMMNCs of beige nude mice, was incubated with Bv8 for 5 days and the frequency of CD11b+Gr1+ cells was evaluated in a FACSCalibur machine. In addition, 7AAD staining was employed to measure the number of dead cells in each treatment. e. Bv8 induces clonogenic capacity of progenitor cells. Lin-population were treated with Bv8 or PBS for 5 days and were plated on methylcellulose (7500 cells per well) and were incubated in 5% CO2 and 37° C. for 15 days. […] L Bv8 is a survival factor for myloid populations. The CD11b+Gr1+ cells, isolated from the BMMNCs of beige/nude mice, were cultured in media and were treated with Bv8 (300 ng/ml) for 5 days. Cell death was measured in a FACSCalibur machine using 7AAD staining. g&h. […] Mice were implanted with A673 (e) or HM7 (f) tumors and were treated with anti-Bv8 or control antibodies as described. Treatment was stopped at day 7 after implantation, as indicated by arrow in the figure. i&j. Discontinued treatment of anti-Bv8 results in rebound of CD11b+Gr1+ cells to A673 (i) and HM7 (j) tumors.
However, the precise contribution of R1 vs. R2 in mediating Bv8 signaling in BMMNCs remains to be determined. […] To further characterize the effects of Bv8 on the cells of the hematopoietic system, both lineage depleted (Lin— that is devoid of CD11b+Gr1+ cells) and CD11b+Gr1+ cells were isolated from the BM of naïve mice and were treated with recombinant Bv8.

T1 sequence (Q8TCW9 whole entry): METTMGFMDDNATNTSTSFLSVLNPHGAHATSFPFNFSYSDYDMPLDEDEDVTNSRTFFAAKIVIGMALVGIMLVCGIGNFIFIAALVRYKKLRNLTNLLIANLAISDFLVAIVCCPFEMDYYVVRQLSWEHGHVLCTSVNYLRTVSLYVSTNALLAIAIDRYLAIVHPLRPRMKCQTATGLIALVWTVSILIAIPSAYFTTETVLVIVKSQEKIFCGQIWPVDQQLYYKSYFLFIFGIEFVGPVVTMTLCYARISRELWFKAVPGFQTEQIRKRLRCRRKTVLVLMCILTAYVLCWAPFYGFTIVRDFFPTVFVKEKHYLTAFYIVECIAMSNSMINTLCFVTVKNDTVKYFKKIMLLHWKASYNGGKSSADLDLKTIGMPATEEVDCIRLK

As to `N.N.[Cl][Pt][Cl]` [cisplatin], the “Bv8 level in the serum” value with Bv8 protein levels is given as “significantly (p<0.05) increased”.

In the case of “VEGF-A: recombinant vascular endothelial growth factor-A”, the “stimulation of PKR1/EG-VEGFR1 transfected CHO cells” value with PKR1/EG-VEGFR1 is reported as “did not elicit any response”. Moreover, in the assay on human neutrophils (all concentrations tested, data not shown), the “effect on neutrophil migration” value is reported as “did not show any effect”. Moreover, in the assay on p44/42 MAPK, the “MAP kinase phosphorylation in TAECs” value is given as “strong induction of MAP kinase phosphorylation”. Besides, the “tube formation in Matrigel” value in the assay with TIB42-TAEC cells is listed as “formed tubes”.

B1: Bv8: recombinant Bv8 (Prokineticin-2) protein, PeproTech (protein)
chain: AVITGACDKDSQCGGGMCCAVSIWVKSIRICTPMGKLGDSCHPLTRKVPFFGRRMHHTCPCLPGLACLRTSFNRFICLAQK
On to B1, for which the “effect on proliferation of tumor cell lines” value is “neither the anti-Bv8 Mabs nor Bv8 itself had any detectable effects” in assay [1] and “failed to stimulate the proliferation” in assay [1] (listed as recombinant Bv8). The “stimulation of PKR1/EG-VEGFR1 transfected CHO cells” value with PKR1/EG-VEGFR1 is given as “dose-dependent stimulation”. The “concentration of maximal stimulation” value with human neutrophils is roughly 2 pM. Further, the “maximal stimulation of chemotaxis above control” value in the assay on human neutrophils (3 hr) is listed as roughly 3 fold. The “migration of BM CD11b+Gr1+ cells” value with CD11b+Gr1+ myeloid cells is on record as “promoted migration”. Further, the “MAP kinase phosphorylation in TAECs” value in the assay on p44/42 MAPK is listed as “strong induction of MAP kinase phosphorylation”. The “dead cells among CD11b+Gr1+ cells” value in assay [2] (Bv8 300 ng/ml, 5 days) was “fewer dead cells”. In addition, the “number of dead cells in Lin- population” value in assay [2] (Bv8 for 5 days, 7AAD) is recorded as “significantly lower than controls”. Besides, in assay [2] (Bv8 for 5 days, vs controls), the “CD11b+Gr1+ cells arising in Lin- population” value is reported as “higher expression of CD11b+Gr1+ cells”. In addition, in assay [2] (data not shown), the “MAPK pathway in CD11b+Gr1+ cells” value is listed as “activation of MAPK pathway in a time dependent manner”. In assay [2] (p<0.05 vs control-treated cells), the “CFU colonies from Lin- cells” value was “greater number of colonies”. The “tube formation in Matrigel” value in the assay with TIB42-TAEC cells is reported as “promoted tube formation”.
